Experimental data from patent US20200332006A1 (ULTRAHUMAN NINE, published 2020).
Substitutions are numbered along the chain they refer to. Names may count otherwise. One block for each molecule: values may come before it.

What was measured:
[1] = biological target: T1, human BTN2A1, expressed on HEK293 cells (human, UniProt Q7KYR7 29-527); assay: flow cytometry on transfected HEK293 cells, no primary antibody
T1 construct: also called NM_007049
T1 sequence: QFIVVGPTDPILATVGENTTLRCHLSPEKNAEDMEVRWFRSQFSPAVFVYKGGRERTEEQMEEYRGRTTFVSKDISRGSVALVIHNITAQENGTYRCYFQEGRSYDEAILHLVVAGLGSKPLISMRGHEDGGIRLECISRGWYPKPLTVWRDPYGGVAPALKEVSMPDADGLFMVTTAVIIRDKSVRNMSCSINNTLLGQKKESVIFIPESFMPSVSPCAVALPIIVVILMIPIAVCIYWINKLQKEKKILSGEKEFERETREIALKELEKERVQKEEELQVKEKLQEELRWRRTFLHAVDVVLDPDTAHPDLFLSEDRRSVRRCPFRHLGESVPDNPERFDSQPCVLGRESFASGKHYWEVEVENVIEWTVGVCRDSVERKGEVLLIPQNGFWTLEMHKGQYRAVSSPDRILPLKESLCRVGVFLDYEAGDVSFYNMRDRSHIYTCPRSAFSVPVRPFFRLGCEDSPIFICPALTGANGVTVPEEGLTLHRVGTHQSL

[2] = biological target: T2, human LSAMP, expressed on HEK293 cells (human, UniProt Q13449 29-315); assay: as above
T2 construct: also called BC033803
T2 sequence: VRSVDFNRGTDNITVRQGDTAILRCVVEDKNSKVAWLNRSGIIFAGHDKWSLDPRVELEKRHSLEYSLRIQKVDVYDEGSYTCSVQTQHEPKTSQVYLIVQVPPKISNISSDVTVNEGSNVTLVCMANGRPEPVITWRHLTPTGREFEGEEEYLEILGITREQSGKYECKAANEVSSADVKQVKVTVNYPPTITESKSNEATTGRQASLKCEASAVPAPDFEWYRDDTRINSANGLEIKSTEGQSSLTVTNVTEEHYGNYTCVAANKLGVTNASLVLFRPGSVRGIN

[3] = biological target: T3, human CD20, expressed on HEK293 cells (human, UniProt P11836 1-297); assay: as above
T3 construct: whole, on cells
T3 sequence (looked up): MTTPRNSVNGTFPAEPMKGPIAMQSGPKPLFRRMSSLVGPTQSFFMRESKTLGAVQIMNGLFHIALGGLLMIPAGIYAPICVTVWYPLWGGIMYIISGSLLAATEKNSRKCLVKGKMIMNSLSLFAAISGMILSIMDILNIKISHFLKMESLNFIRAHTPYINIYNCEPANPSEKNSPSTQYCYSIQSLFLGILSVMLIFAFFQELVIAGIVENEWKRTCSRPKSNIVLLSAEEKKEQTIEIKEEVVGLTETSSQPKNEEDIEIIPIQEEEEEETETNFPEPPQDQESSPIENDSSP

[4] = biological target: T1, human BTN2A1, expressed on HEK293 cells; assay: flow cytometry on live transfected HEK293 cells
Procedure: (§1) FIG. 11. […] Analyses of binding specificity were performed on HEK293 cells transiently transfected with plasmids encoding either human PD1, human BTN2A1, human LSAMP, human CD20 or ZS green marker only. Each antibody was used in staining at […] concentration and histograms are indicated per antibody in this figure.
(§2) Human cell membrane receptor proteome arrays were performed at Retrogenix Ltd. Primary screens: 2 μg/ml of each antibody was screened for binding against fixed HEK293 cells/slides expressing 5528 human plasma membrane and tethered secreted proteins individually. […] Antibody binding was detected using AF647 fluorescent secondary anti-human IgG1 antibody. Primary hits (duplicate spots) were identified by analysing fluorescence (AF647 and ZsGreen1) on ImageQuant. Confirmation/specificity screens: Expression vectors encoding ZsGreen1 only, or ZsGreen1 and CD20, PD1, BTN2A1, or LSAMP were transfected into human HEK293 cells. […] Cells were washed, and incubated with the same AF647 anti-human IgG Fc detection antibody as used in the cell microarray screens. Cells were again washed, and analysed by flow cytometry using an Accuri flow cytometer (BD). A 7AAD live/dead dye was used to exclude dead cells, and ZsGreen1-positive cells (i.e. transfected cells) were selected for analyses.

[5] = biological target: T1, human BTN2A1, expressed on HEK293 cells; assay: flow cytometry on transfected HEK293 cells, 2 ug/ml IgG
Procedure: as §1, §2

[6] = biological target: T2, human LSAMP, expressed on HEK293 cells; assay: as above
Procedure: as §1, §2

[7] = biological target: T3, human CD20, expressed on HEK293 cells; assay: as above
Procedure: as §1, §2

[8] = biological target: T4, biotinylated human PD1-His/AviTag (human, UniProt Q15116 25-170, biotinylated (AviTag)); assay: AlphaScreen epitope competition; competitor mu317 IgG on biotinylated monomeric human PD1
T4 construct: also called biotinylated monomeric human PD1
T4 sequence (Q15116 25-170 limits assumed): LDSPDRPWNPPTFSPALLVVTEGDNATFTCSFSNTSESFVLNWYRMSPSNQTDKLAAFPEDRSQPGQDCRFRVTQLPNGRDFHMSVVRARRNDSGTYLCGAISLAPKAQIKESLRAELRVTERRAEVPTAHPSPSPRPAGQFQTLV
Procedure: (§3) The AlphaScreen assay (Perkin Elmer) was performed in a 25 μl final volume in 384-well white microtiter plates (Greiner). The reaction buffer contained 1×PBS pH 7.3 (Oxoid, Cat. nr. BR0014G) and 0.05% (v/v) Tween® 20 (Sigma, Cat. nr. P9416). Purified IgG samples were titrated in three fold serial dilutions starting at 500 nM final concentration and incubated with biotinylated human PD1-His/AviTag at 0.6 nM final concentration for 20 minutes at room temperature. […] Followed by addition of the Streptavidin Donor beads at 20 μg/ml (final concentration) and incubation for 30 minutes at room temperature. The emission of light was measured in the EnVision multilabel plate reader (Perkin Elmer) and analysed using the EnVision manager software. Values were reported as Counts Per Second (CPS) and corrected for crosstalk.

[9] = biological target: T5, human PD1 human Fc tagged recombinant protein (human, UniProt Q15116 25-170); assay: direct titration ELISA, IgG1null on coated PD1-Fc
T5 construct: also called human PD1-Fc; huPD1
T5 sequence (Q15116 25-170 limits assumed): as above
Procedure: (§4) Binding and cross-reactivity of the lead panel to the recombinant proteins was initially assessed by binding ELISA. The human PD1 human Fc tagged recombinant protein and the cynomolgus monkey PD1 human Fc tagged recombinant protein were coated to the surface of MaxiSorp™ flat-bottom 96 well plate at 1 μg/ml. The Fab samples were applied at 1:5 dilution in 1% Skimmed Milk/1×PBS; 1 h at RT; 100 μl/well. IgGs were titrated in two fold serial dilutions starting from 500 nM to 0.98 nM and allowed to bind to the coated antigens. The Fabs were detected using mouse anti-c-myc antibody followed by donkey anti-mouse IgG conjugated to horseradish peroxidase. The IgGs were detected using the mouse anti-human IgG conjugated to horseradish peroxidase. Binding signals were visualized with 3,3′,5,5′-Tetramethylbenzidine Substrate Solution (TMB) and the absorbance measured at 450 nm.

[10] = biological target: T6, cynomolgus monkey PD1 human Fc tagged recombinant protein (cynomolgus monkey, UniProt Q15116 25-170 (human entry), limits assumed); assay: direct titration ELISA, IgG1null on coated PD1-Fc
T6 construct: also called cyno PD1-Fc; cyPD1
T6 chain: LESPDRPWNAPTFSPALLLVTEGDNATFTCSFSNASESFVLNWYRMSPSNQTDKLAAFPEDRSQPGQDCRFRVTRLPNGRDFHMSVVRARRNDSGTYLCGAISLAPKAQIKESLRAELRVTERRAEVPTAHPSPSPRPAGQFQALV
Procedure: as §4

[11] = biological target: T6, cynomolgus monkey PD1 human Fc tagged …; assay: direct titration ELISA, IgG1null on coated PD1-Fc (reference antibody)
Procedure: as §4

[12] = biological target: T4, biotinylated human PD1-His/AviTag; assay: AlphaScreen epitope competition; titrated IgG against mu317 IgG (parental IgG, 0.3 nM) on biotinylated monomeric human PD1
Procedure: as §3

Molecule: AF647 anti-human IgG Fc detection antibody alone
- fold fluorescence change versus mock (ZSgreen only) cells [1]: 1.1 fold
- fold fluorescence change versus mock (ZSgreen only) cells [2]: 1.5 fold
- fold fluorescence change versus mock (ZSgreen only) cells [3]: 0.9 fold

B1: Antibody MH8, IgG1null format (antibody, V domains shown)
VH: EVQLVESGGGLVQPGGSLRLSCAASGFTFSSYGMSWVRQAPGKGLEWVANIWQDGSTKYVDSVKGRFTISRDNAKNSLYLQMNSLRAEDTAVYYCARAYGNYWYIDRWGQGTTVTVSS
VL: DIVMTQSPDSLAVSLGERATINCKSSQSVTNDVAWYQQKPGQPPKLLINYAYHRFTGVPDRFSGSGYGTDFTLTISSLQAEDVAVYYCHQAYSTPYTFGQGTKLEIK
notes: Tested as IgG1null (human IgG1 L234A, L235A, G237A) with human Ckappa; also called clone MH8
- binding result [4]: no binding (tested: 2 ug/ml)
- fold fluorescence change versus mock (ZSgreen only) cells [5]: 1.1 fold
- fold fluorescence change versus mock (ZSgreen only) cells [6]: 7.1 fold
- fold fluorescence change versus mock (ZSgreen only) cells [7]: 0.9 fold
- IC50 [8]: 0.39 nM

Results, then the molecule that gave them:

- binding result [9]: binds
- binding result [10]: binds
B2: Antibody 09C06, IgG1null format (antibody, V domains shown)
VH: B1 VH with T28S, S35H, K58N
VL: B1 VL with T30S, Y52S
notes: Library-derived clone; Tested as IgG1null (human IgG1 L234A, L235A, G237A) with human Ckappa; also called clone 09C06

- binding result [4]: no binding (tested: 2 ug/ml)
- fold fluorescence change versus mock (ZSgreen only) cells [5]: 1.2 fold
- fold fluorescence change versus mock (ZSgreen only) cells [6]: 1.9 fold
- fold fluorescence change versus mock (ZSgreen only) cells [7]: 1.1 fold
- IC50 [8]: 0.63 nM
B3: Antibody MH4, IgG1null format (antibody, V domains shown)
VH: B1 VH with T28S, F29L, N50V, K58N
VL: B1 VL
notes: Tested as IgG1null (human IgG1 L234A, L235A, G237A) with human Ckappa; also called clone MH4

- fold fluorescence change versus mock (ZSgreen only) cells [5]: 1.3 fold
- fold fluorescence change versus mock (ZSgreen only) cells [6]: 4.1 fold
- fold fluorescence change versus mock (ZSgreen only) cells [7]: 1.1 fold
- IC50 [8]: 0.624 nM
B4: Antibody MH12, IgG1null format (antibody, V domains shown)
VH: B1 VH with T57E
VL: B1 VL
notes: Tested as IgG1null (human IgG1 L234A, L235A, G237A) with human Ckappa; also called clone MH12

- binding result [11]: binds
- IC50 [12]: 0.37 nM
B5: Mu317 murine anti-PD1 v-domains, produced in human IgG1null format (antibody, V domains shown)
VH: QVQLKESGPGLVAPSKNLSITCTVSGFSLTSYGVHWIRQPPGKGLEWLGVIWAGGSTNYNSALMSRLSISKDNSRSQVFLRMNSLQTDDTAMYYCARAYGNYWYIDVWGAGTTVTVSS
VL: DIVMTQTPKFLLVSAGDRVTITCKASQSVSNDVAWYQQKPGQSPKLLINYAFHRFTGVPDRFTGSGYGTDFIFTISTVQAEDLAVYFCHQAYSSPYTFGGGTKLEMK
notes: Tested as IgG1null (human IgG1 with L234A, L235A, G237A) with human Ckappa; also called Mu317 IgG1; parental IgG
